The target in test [1] is HIV-1 YU-2 envelope gp120 with a C-terminal hexa-histidine tag (HIV-1 (YU-2 strain)) (UniProt P35961). The experiment in a line: ITC. A general note: ITC needs no label: the signal is the heat of the interaction.
Test [2] shares this target. The test is described as follows: SPR. On the technique in general: In SPR one partner is held on a chip, and binding of the other changes the refractive index at the surface.
Test [3] shares this target. The experiment in a line: SPR. The source holds these as a separate data set.
Test [4] has the same target.

We go through three substances from PMC3810028.

For orientation: IC50 means the concentration needed to halve the response being measured. Read a high IC50 as weaker potency. As a reminder, the Kd is the equilibrium constant for the complex coming apart.

Like-named read-outs stand apart in the source and are kept apart here.

Consider “peptide triazole KR-41 (UM-24 with Trp 6 replaced by L-3-benzothienylalanine, Bta)”, for which, in test [1], the dH was -14.9 kcalmol^−1. The half-inhibitory concentration (IC50) in test [2] stood at 50.8 nM.
In test [1], “peptide triazole KR-42 (DCit-DAsn-DAsn-DIle-LFtP-LBta-DSer-NH2)” registered a Kd of 282 nM and a dH of -14.6 kcalmol^−1. In test [2], the IC50 was found to be 208 nM. The same substance gave an IC50 in test [3] of 119 nM.
Consider “peptide triazole UM-24 (Cit-N-N-I-X-W-S-CONH2)”, for which, in test [1], the Kd worked out at 21.1 nM and the dH is -14.1 kcalmol^−1. This substance also displayed an EC50 of inhibition of single-round infection by HIV-1BaL (Env of BaL, not YU-2) in test [4] of 6200 nM. For the same substance, the IC50 in test [2] was determined as 71.5 nM. This substance gave an IC50 in test [3] of 45 nM.
